Data reported in PMC8554075 (Immunity, 2021).
Residue numbers refer to the chain shown, from its start.

What was measured:
[1] = biological target: T1, SARS-CoV-2 receptor-binding domain (SARS-CoV-2, UniProt P0DTC2); assay: BLI
[2] = biological target: T1, SARS-CoV-2 receptor-binding domain; assay: cell-based or functional assay

B1: AB-3467, expressed as human IgG1 (antibody, V domains shown)
VH: QVQLQESGPGLVKPSETLSLTCTVSGGSISSYHWNWIRQPPGKGLEWIGYIYYSGNTNYNPSLKSRVSISTDTSKNQFSLKLSSVTAADTAVYYCVREMRRGYSGYDYWDLYAFDIWGQGTMVTVSS
VL: DIQLTQSPSFLSASVGDRVTITCRASQGISSYLAWYQQKPGKAPNLLIYAASTLQSGVPSRFSGSGSGTEFTLTISSLQPEDFATYYCQQLNSYPHTFGQGTKLEIK
Kd [1]: 4.1 nM | neutralization of live CoV2 virus, Vero E6 cells (blocks RBD-ACE2) [2]: 0.179 µg/mL

B2: AB-3623, expressed as human IgG1 (antibody, V domains shown)
VH: B1 VH with T23A, H33Y, K43T, N56R, S68T, T71V, V96A, Y108D
VL: B1 VL with A13T, V15I
Kd [1]: 2.3 nM

B3: AB-4873, expressed as human IgG1 (antibody, V domains shown)
VH: QVQLVQSGAEVKKPGASVKVSCKASGYTFTSYYMHWVRQAPGQGLEWMGIINPSAGTTNYAQKFQGRVTMTRDTSTSTVYMELSSLRPEDTAVYYCARENYYGWGSYPFDYWGQGTLVTVSS
VL: B1 VL with I2V, N45K, S65T, H96Y
Kd [1]: 4.1 nM

B4: AB-4689, expressed as human IgG1 (antibody, V domains shown)
VH: QVQLVQSGAEVKKPGASVKVSCKASGYTFSSYGISWVRQAPGQGLEWMGWISAYNGNTYYAQKLQGRVTMTTDTSTSTAYMELRSLRSDDTAVYYCAREFGRLIVHFDYWGQGTLVTVSS
VL: EIVLTQSPDFQSVTPKEKVTITCRASQSIGSSLSWYQQKPDQSPKLLIKCASQSISGVPSRFSGSGSGTDFTLTINSLEAEDAAAYYCHQSSSLPYTFGQGTKLEIK
Kd [1]: 0.24 nM

B5: AB-2445, expressed as human IgG1 (antibody, V domains shown)
VH: QVQLVESGGGVVQPGRSLRLSCAASGFTFSSYGMHWVRQAPGKGLEWVAVIWYDGSNKYYADSVKGRFTISRDNSKNTLYLQMNSLRAEDTAVYYCARDDYYGSGSYDYYGMDVWGQGTTVTVSS
VL: DIQMTQSPSSLSASVGDRITITCRASQGIRNDLDWYQQKPGKAPKRLIYAASSLQSGVPSRFSGSGSGTEFTLTISSLQPEDFATYYCLQHNSYPPYTFGQGTKLEIK
neutralization of live CoV2 virus, Vero E6 cells (blocks RBD-ACE2) [2]: 0.37 µg/mL
